From the nanobody polyreactivity screen of Harvey et al. (2022)

Test: yeast display, Sf9 membrane polyspecificity reagent, FACS + sequencing; frameworks hold sequencing errors
Method in brief: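 Genes from sorted yeast were amplified by colony PCR, read by MiSeq 2 × 250 sequencing and filtered on CDR length. These cells carried a synthetic nanobody library in Saccharomyces cerevisiae BJ5465 and were sorted by FACS into low and high (top ~1%) gates on anti-HA and streptavidin fluorescence. Polyreactivity is labelled according to the gate of origin.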

Row | Sequence | polyreactivity (PSR sort gate)
1 | QVQLVESGGGLVQAGGSLRLSSAASGSTFWVNTMGWYRQAPGKERELVAGSTSNGGSTSYADSVKGRFTITRDNAKNTVYLQKNSLKPEDTAVYYCNADTYPDYWAYLYDYWGQGTQVTVSS | low polyreactivity
2 | QVQLVESWGGLVQAGGSLRLSCAASGRTFYSNAMGWYRQARGNERELVAAISRSGGTTYYADSVKGRFTISRDNAKNTVYLLMNSLKPEDTAVYYCNTLRYGTTGKYDYWGQGTQVTVSS | high polyreactivity
3 | QVQLVESGGGLVQAGGSLRLSCAASGFIFGDNAMGWYRQAPGKERELVAGITVSDGSTYYADSVKGRFTISRDNAKNTVYLQMNSLKPEDTAVYYCNAAGRYKPGAPYDYWGQGTQVTVSS | low polyreactivity
4 | QVQLVESGGGLVQAGGSLRLSCAASGRTSNGYAMGWYRQAPGKERELVAAYADSVKGRFTISRDNAKNTVYLQMNSLKPEDTAVYYCNADYYPVSRVGYVYWAYYYWGQGTQVTVSS | low polyreactivity
5 | QVQLVESGGGLVQAGGSLRLSSAASGLIFWFYAMGWYRQAPGKERELVAAIDTDGGSTYYADSVKGRFTISRDNAKNTVYLQMNSLKPEDTAVYYCAATFAAYTQQTFYYWGQGTQVTVSS | low polyreactivity
6 | QVQLVESGGGLDQAGCSLRISCAASGRIFIQNTMGWYRQAPGKERELVAAITRSGGRTYYADSVKGRFTFSRDNAKNTVYLQMNSLKPEDTAVYYCNRRPATRAYLYDYWGQGTQVTVSS | high polyreactivity
7 | QVQLVESGGGIVQAGGSLRLSCAASGNNIGGNAMGWYRQAPGKERELVAAISNSGVRTYYADSVKGRFTISRDNAKNSVDLQMNSLKPEDTAVYYCYVLGNYYGKFDYWGQGTQVTVSS | high polyreactivity
8 | QVQLVESGGGLVQAGGRLRLSCAASGRIFIYYAMGLYRQAPGKERELVAAISWGGGRTYYADSVKGRFTISRDNAKNTVYLQMNSLKPEDTAVYYCAAGVYTGQHEYDYWGQGTQVTVSS | low polyreactivity
9 | QVQLVESGGGLVQAGGSLRLRCAAMGWYRQAPWKERELVAGITRDGNTYYADSVKGRFTISRDNAKNTVYLQMNSLKPEDTAVYYCAAKHPKKYSYWGQGTQVSVSS | low polyreactivity
10 | QVQLVESGGGLVQAGGSLRVSCAASGSTFVYYAMGWYRQAPGKERELVAAITASGGGTYYADSVKGRFTISRDNAKNTVYLQMNSLKPEDTAVYYCNRGYDYWGQGTQVTVSS | low polyreactivity
11 | QVQLVESGGGLVQAGGSLRLSCAASGFTFWKYSMGWYRQAPGKERELVATITSSGDNTYYADSVKGRFTISRDNAKNTVYLQMNSLKPEDTAVYYCAADNGYHYNFDYWGQGTQVTVSS | low polyreactivity
12 | QVQLVESGGGLVQAGGSLRLSCAASGIFVGYTMGWYRQAPGKERELVAAIRWTDGSTYYADSVKGRFTISRDNAKNTVYLQMISLKPEDTAVYYCAADSHDPARYYYGDEFEDEYWGQGTQVTVSS | low polyreactivity
13 | QVQLVESGGGLVQAGGSLRLSCAASGFIFGRYAMGWYRQAPGKERELVAGISSRGGRTYYADSVKGRFTISRDTAKNPVFLQINSLKPEDTAVYYCGAAGLTDYVRYDYWGQGTQVTVSS | high polyreactivity
14 | QVQLVESGGGLVQAGGSLRLSCAASGINYTFYAMGWYRQAPGKERELVAAISYSSGSTYADSVKGRFTISRDNAKNTVYLQMNSLKPEDTAVYYCAVDLFPGHSYTYDYWGQGTQVTVSS | low polyreactivity
15 | QVQLVESGGGLVQAGGSLRLSCAASGSTFENYVRGWYRQAPGKERELFAAISRGGGSTHYADSVKGRFTISRDNAKITVYLQKKSLKPEDTAVYYCAARYQTYVGSSSISTGIYYYWGQGTQVTVSS | low polyreactivity
16 | QVQLVESGGGIVQAGGSLRLSCAASGFTFVNNAIGWYRQAPGKERELVASITRRGGRTYYADSVKGRFTISRDNAKNTVYLQMNSLKPEDTAVYYCAVQGYGWGPLGYAEYDYWGQGTQVTVSS | high polyreactivity

Row | Sequence | polyreactivity (PSR sort gate)
17 | QVQLVESGGGLVQAGGSLRLSCAASGSTFFKYAMGWYRQAPGKERELVAAISYSGGSTYYADSVKGRFTISRDNAKNTVYLQMNSLKPVDTAVYYCAARVQNRYRPYYYWGQGTQVTVSS | high polyreactivity
18 | QVQLVESGGGLVQAGGSLRLSCAASGSIFRIKAMGWSRQAPGKERELVAAITGRVGSTYYADSVKGRFTISRDNAKNTVYLQMNSLKPEDTAVYYCAARAGSSRYTREYRYDYWGQGTQVTVSS | high polyreactivity
19 | QVQLVESGGGLVQAGGSLRLSCAASGRTFVYYDMGWYRQAPGKERELVAAISRRGDTTYYADSVKGRFTISRDNAKNTVYLQMNSLKPVDTAVYYCNARSIKYGSWGQGTQVTVSS | high polyreactivity
20 | QVQLVESGGGLVQAGGSLRLSCAASGRIFDTNVMGWYRQAPGTDRDFVAAIRWNGGSTNYADSVKGRFTISRDNSKNTVYLQMNSLKPEDTAVYYCAADGYIGWRHIYEYWGQATQVTVSS | low polyreactivity
21 | QVQLVESGGGLVQAGGSLRLSCAASGFIFGRYAMVWYRQAPGKERHFVASISWSGGSTHYADSVKGRFTISREKAKNTVYLHMNSLKPVDTAVYYCARGFPPYRVTHMNYWGQGTLVTVSS | high polyreactivity
22 | QVQLVESGGGIVQAGGSLRLRCAASVRIFPCNTMGWYRQAPGKERELVAGINNGDRTYYADSVKGRFTISRDYAKNTVYLQMNILKPEDTAVYYCAADYVYFYFYGYDSWGQRTQVTVSS | low polyreactivity
23 | QVQLVESGGGLVQAGGSLRLSCAASGRTFYSNTMGWYRQAPGNERELVAAISRSGVGTYYADSVKGRFTISRDIAKNSVYLHMNSLKPEDTAVYYCAALPTGKSGYLYDYWGQGTQVTVSS | high polyreactivity
24 | QVQLVESGGGLVQAGGSLRLSCAASGSIFGTNAMGWYIQAPGKEREFVATISSRTGSTYYADSVKGRFTFSRDNAKNTVYLQMNSLKPEDTAVYYCAAVRWYGKYDYWGQGTQVTVSS | low polyreactivity
25 | QVQLVESGGGLVQAGGSLRLISAASGSIFAKYAMGWYRHAPGKERELVAAITGSGGSTYYADSVKGRFTISRDNAKNTVYLQMNSMKPEDPAVYYCAKRRPRYTYNYCGQGTQVTVSS | high polyreactivity
26 | QVQLVESGGGLVQAGGSLRLSCAASGFTFRYYAMGWYRQAPGKERELVAGISWSGSRTYYADSVKGRFTISRDNAKNTVYLQMNSLKPEDTAVYYCAKVNSYGPVPDRYDYWGQGTQVTVSS | high polyreactivity
27 | QVQLVESGGGLVQAGGSLRLSCAASGLILYNYAMGWYRQAPGKERELVAAISRSGGSTYYADSVKGRFTISRDNAKNTVYLQMNSLKPEDTAVYYCKVGYGRGSTIGGYDYWGQGTQVTVSS | high polyreactivity
28 | QVHLVESGGGLVQAGGSLRLSCAASGRTFPYNAMGGYRQAPGKERELVAAISSGGSTTYADSVKGRFTISRDNAKNTVYLQMNSQKPEDTAVYYCATKYQRRPYRYYYWGQGTQVTVSS | low polyreactivity
29 | QVQLVESGGGLVQAGGSLRLSCAASGLTFRYNAMGWYRQAHGKERELVARISRNGGRTYYADSVKGRFTISRDNAKNTVYLQMNSLKPEDSAVYYCNVVYFVTTSPGYDYWGQGTKVTVSS | high polyreactivity
30 | QVQLLESGGGLVQAGGSLRLSCAASGYTLRKYAMGWYRQAPGKERELVAAIRTSGGSTYYADSVKGRFTISRDNAKNTVYLQMNSLKPEDTAVYYCAAEWIFSYTWEYDYWGQGTQVTVSS | low polyreactivity
31 | QVQLVESGGGLVQAGGSLRLSCAASGSIFYSYAMGWYRQAPGKERELVAAISWDASTYYADSVKGRFTISRDNAKNTVYLQMNSLKPEDTAVSYCNADIPYYFVYDAYDYWGQGTQVTVSS | low polyreactivity
32 | QVQLVQSGGGLFQAGGSLRLSCAPSGSIFDPNALGWYRQAPAKERELVAAISSGGSRKYSDSVKGRFTISRDNAKNTVYLQMNRLIPEDTAVYYCDASPRQGMYYWGQGTQVTVSS | high polyreactivity
